According to the DeepSol protein solubility set:

Experiment: soluble on expression in E. coli; label from the status in PepcDB or PDB records

Sequence	soluble on expression in E. coli
MTTGVRRRMGVEERRQQLIGVALDLFSRRSPDEVSIDEIASAAGISRPLVYHYFPGKLSLYEAALQRASDDLADRFVEPRQGPLGARLLRVMGRYFDFVDEHGPGFSALMRGGPAVGSTTTNALVDSVRQAAYVQILSHLDVTEPPARLELVVRSWISLAESTALLWLDGRRIPRAELETQLVHDFAALMAVSAAYDEEMGALVRRVLADEPEDGPFGDLVDRLLALSAR	soluble
MGSDKIHHHHHHMARKKRNPDAEKLAESILNAYQPESVDDMQDALKDVFGPLFEKMLQGELNNHLGYDAHSKEPKEHDNRRNGYGTKTLKTSFGEVAIDVPRDREASFEPELIPKRKRDVSDIEGKVLSMYARGMSQRDIAATVEAIYGFDISHEMISDITDAVLPELEEWQARPLAKCYAFLFVDCMYVTLRENYEAKEYAVYTILGYDLKGNKEILGLWLNQTESKNRWMQVFDELKARGVEDVFFISMDGVSGLEEGAKAIFPSVIVQRCIVHLVRNALRYIPSKDYKEVCRDMKKFYGASSLNAAHAAFGSFQNRWSHYSGAVDVWKRNFAHVEQLFDYGSAIRKIMYTTNAVESVHSSFRKVTKKGAFSNENALLKLLYLRTKELHAKWSGGRIQNWAMVLKQLMINETFSSRMKSMRFTFRNNGRFIQLCVRSKFI	not soluble
MSLDSWNVLIADDEIIIREGIRDAINWSELQLTVVAEAEDGEEALELALEHQVDILLADLNMPIMNGLTLIKQLRTALPHCKVIIITGHDEFVYAQEAIRLSVVDYIIKPVDADQLYEVLKKVCIELTEGQNRKREETFTAKQLEKNITLLREQFCSNWVMGALTNEEVAEQLSFLQLPDTLPSFIGVIRCLNRLHLVGEGHHHHHH	soluble
GMSKPAITLWSDAHFFSPYVLSAWVALQEKGLSFHIKTIDLDSGEHLQPTWQGYGQTRRVPLLQIDDFELSESSAIAEYLEDRFAPPTWERIYPLDLENRARARQIQAWLRSDLMPIREERPTDVVFAGAKKAPLTAEGKASAEKLFAMAEHLLVLGQPNLFGEWCIADTDLALMINRLVLHGDEVPERLVDYATFQWQRASVQRFIALSAKQSG	soluble
MAKMTTLKMKERLEKELQAPNRQFSYNRDNDALTVVQSGKKVTLAIPQIIANYENDGDAAVEKIVYYVEEGFRAAAGNVELENNKANVYPVVRATSFPGETKAGEVLLTDDHTAETKIFYAVDLGKSYRFIEESMLKKAQLTHEEIREAAFNNLANLEIPLKKDSVNGNDFYFVRTNDGYDASRLLNEAFLREMREKLTGEMVLAVPHQDVLIIGDIQDNTGYDVLAHMTMDFFADGLVPITSLPFVYNNGKLEPIFIMAKNRLKE	not soluble
MLLNLDVRMQLKELAQKEFKEPVSIKLFSQAIGCESCQTAEELLKETVEVIGEAVGQDKIKLDIYSPFTHKEETEKYGVDRVPTIVIEGDKDYGIRYIGLPAGLEFTTLINGIFHVSQRKPQLSEKTLELLQVVDIPIEIWVFVTTSCGYCPSAAVMAWDFALANDYITSKVIDASENQDLAEQFQVVGVPKIVINKGVAEFVGAQPENAFLGYIMAVYEKLKREKEQA	soluble
MTRQFLEFEQPIEELNQKIEALRMVGSDNEVNLSEEIARLEAKCSELTENIFSRLEPWQIAQMARHPLRPQTTDYIERIFTDFQELHGDRSYSSAPAIIGGMARLNGEPVMVLGHQKGKRTKEKVYRNFGMARPEEYRKALRLMRMAEKFKMPVVTFIDTAGAYPGIGAEERNQSEAIARNLFAMSRIKTPIVCIVTGEAGSGGALAIGVGDKIIMLQFSIYSVISPEGCASILWKDASKASEAARAMGITADRIFENELVDMVVPEPLGGAHRDVDEMASRLKRLLTSELQALKKVPLDQLIELRYQKFMAMGACD	not soluble
MAHHHHHHMSLRPDVFGQPPIVDRFARFAIARRGSSSSHNNNNNNNNNNSGSVSPLERGGVHGNDKSPAAAPVAAGVGSKAGVRESSAKSRLSLGVSNTDVVLESPISSNAAEATSEVMDVTSTAQADDEEEDEVETLNRFMADQSDETATRTHKRTLFSLNLTLAEVMETAMHFSQMRPTSPEEYKKAMAMIRAADDARHERIAAFRSATPTTGSHNGMGSSPSSSLTTTPTVGYPDAALHIEEPMHFGVVMLHIRFALRKIIHASMRRLAAQQGPKTLSMMVEMLREVDPKWHQNQNNNSGELRRQSDSMLAGTLRVLVARSVVCVDLVGEAGDLLGGGAGGLAISAVGLQRTERALHLVQRAKRSATGSGGNTGDHVSRRRPQRHRGDGGARTSSSGEKRSIS	not soluble
MAELRETLERLASFRPQNYYVSTLYLRLMPEDRQDNKYLRVYKDLVKKKEKDLENLNLDKEVLDSIRGDIKNIQDFLSDPKNLYNCRGIAIFSCSKLGLFEYVKLPYVYRNRLMFSPDPLVREIAAIDEEFGRVAVLLLDRKHIRYFLMDITGIEEKLDFLEPMTTRAHRFHSGGALLKGAEGTFQYRMPARGAAPNVVQHGMGEWRFHMRLREEWHRILKLASDALFEEWKRIHFDKLIIGGFIEEGLREIENFLHPYVKEKLVGYIEITPEEATPHQVWEKALDLLWQKDREQEKEIIKELEELKGWGLAVNGTSEVLEMLAIGNVRTLILPEDFEKPGYLCPQSHLAFLKPECPLPEEKPIPVSDVVDEALEEALDQRATIEVIIDKELQKKVDGLAAFLRFKL	not soluble
MRDERLSKIISMFQAHIRGYLIRKAYKKLQDQRIGLSVIQRNIRKWLVLRNWQWWKLYSKVKPLL	soluble
MKTEEMKFINESEFKKLKHYFEQKNTTSSLVLLVALTTGGRFSEIAKLKREDLDIKNNKIHLRGTKTETSDRIISIDTVTMKRIQSFIDSRPTNISGYIFTVDGKTITNAAVNKVLRKACANLNIKEITIHSLRHSFCSILIHHGFSILYISKHLGHSNPATTQSIYSHLLQETYEREDELEHHHHHH	not soluble
MSLGMASHPPIPILELADHIERLKANDNLKFSQEYESIDPGQQFTWEHSNLEVNKPKNRYANVIAYDHSRVLLSAIEGIPGSDYVNANYIDGYRKQNAYIATQGSLPETFGDFWRMIWEQRSATVVMMTKLEERSRVKCDQYWPSRGTETHGLVQVTLLDTVELATYCVRTFALYKNGSSEKREVRQFQFTAWPDHGVPEHPTPFLAFLRRVKTCNPPDAGPMVVHCSAGVGRTGCFIVIDAMLERIKHEKTVDIYGHVTLMRAQRNYMVQTEDQYIFIHDALLEAVTCGNTEVPARNLYAYIQKLTQIETGENVTGMELEFKRLEGHHHHHH	soluble
MDYEIRQEQKRKIAGFHMVGPWEHTVKQGFEQLMTWVDRQRIVPVEWIAVYYDNPDVVPAEKLRCDTVVSVAENFILPDNSEGVIVTAIEGGEYATAVARVEDRDFAKPWERFFDVLEQDSAYQIASAPCFETYLNNGMEDGYWDIEMYIPVQRK	not soluble
MSIQQIIEQKIQKEFQPHFLAIENESHLHHSNRGSESHFKCVIVSADFKNIRKVQRHQRIYQLLNEELNHSIHALALHLFTPEEWKAQNETVPHSTKCAGIGRLEHHHHHH	soluble
MSDKISFLPPEPIQLLDEDSTEPELDIDSQQENEGPISASNSNDSTSHSNDCGATITRTRPRRSSSINANFSFQKAHVSDCTIVNGDHGTKFAVWRITVFLEPNLKAFAAKRESYKIQTYKRYSDFVRLRENLLTRIKTAKPEKLNCLQIPHLPPSVQWYSSWKYQEVNLNKDWLAKRQRGLEYFLNHIILNSSLVEMTKDILIQFLEPSKRVA	soluble
MIDVGGWYNKAELKAKGDEIVKEAKLATRREAESYRAALDAQAQQEARSKGVENTEHIRGMNPITPQEEAEFAAYLDESFSWIPSAFEGYGDPNPDDFDGIIKDLAKVEGTFGGSQSSTKNGDLAWTEKAKSEIEEWKGVFAENLYNNLLLPLPTIQDNHGKIAHVLTEAMKGTQNIYNGQKRDISQLADDTIKQLKKCGTRDGDNTKLGLTVAACLMGVAAAALALPSGGTSVYVTGIVMASISSSTIITNATVKPGDGDIGGKTVNDVIKSMSDGMSRISTEVSEQEQKVVKVLSKNYEMLTGLRQLGNSSKKPTPISPMRPTIADSKNPSSGLKPEGPQ	not soluble
MAESYEEWKSFALKLDEETGAQEWKFDNSSPYFDAELISYRYTLLKRYRQQHRTLDLIYLLKEGLTYDIANIGHPMLFAATHVGTKKLIEDYIEEVSQSLAYIASSECITFQRKEKIEFFENCEKAYGQPALMFSGGATLGLFHTGVCKALIEQDLMPKVLSGSSAGAIMTGMLGISASEDIQNLLNGEQFFSDAFHFRKLRELIKGNGGIADVHYLKKFLIENLGDLTFEEAFKKSGLNINVAVAPYDATENPRIMNAIMTPNVLVWSAVLASCAVPVLFPPVRLTSKRYDGEHTPYMANTKWVDGSVRSDFPQERMARLYNLNYTIASQVNPHVVPFMQDDARRFRKDVLSWPERILRRQGKVLSMGLMDFTRQRLGAISPVRRLLDHGYGVVGQRYYGDVNIIAKYSLKHYAYTLQNPRPHLFKRLQREGERATWPKISSIETHARIGKTIQHCLEVLRFEEKKLEHHHHHH	not soluble
MAIIKSPVFKDISEAEISEMTSAGFLRARKFRKKAIIYHVTDIVHEIGIVASGQVTIEYIDMWGNKAIMSNIAPGQVFAETYALSGEPLMVDAVASETSVVLFLNIRKLMDSQPENVHYKDTILNNLLHISIQKNLTLSNRIFCTSPKTIRDRLLIYLSNESRKAGCEEFSIPFDRQQLADYLNVDRTALSKELGKMRDDGLIEFRKNVFHLLSIC	not soluble
AHHHHHHGSYILQKNKGVIRVKDIAKMMRVKPPTVVEALKKLRDKGFVKYEEHEHILLTEKGLEVAKKTYSKHQLLTEFFINILGIPPEIAERDACQFEHYVSEVTVHRIREFISYIQQECPYALKQFLKKVREKDQAVAK	not soluble
MDALIAQLQRQFRDYTISLYQQGFLDDQFTELKKLQDDGSPDFVSEVLSLFFEDCVKLISNMARALDTTGTVDFSQVGASVHQLKGSSSSVGAKRVKTLCVSFKECCEAKNYEGCVRCLQQVDIEYKALKTKLQDMFNLEKQIIQAGGIVPQVDIN	soluble
MKRYISIKGIGTYLPKRKVDSLEIDQMLDVPEGWTLKKAGVKTRYFVDGETSSYMGAEAAKKAVEDAKLTWDDIDCIICGSGTIQQAIPSTASLIQEQLGLQHSGIPCFDINSTCLSFITALDTISYAIECGRYKNVVIISSEISSVGLNWGQNESSILFGDGAAAVVITKGDHSSSIIASHMETYSSGAHLSEIRGGGTMIHPREYSEERKEDFLFDMNGRAIFKLSSKYLMKFIDKLLMDTGYSLADIDLIVPHQASGPAMRLIRKKLGVDEERFMTIFEDYGNMISASIPVALFEAIKQKKVQRGNKILLLGTSAGLSIGGILLEY	not soluble
SKELKEIKSELLNYTDDTLPAMERVDAIRDDLSHWRRSQFATYTYKDADKIRNKIASNIREREKISKELEAYGSTIWPGEEQQTFQRLMRQWKQYLVTMDQYNESMLAGNKTEALAVLSNSLNDFEAVDSDLNELIRLLKVAMDSNKNHILSSVN	not soluble
FKIETTPESRYLAQIGDSVSLTCSTTGCESPFFSWRTQIDSPLNGKVTNEGTTSTLTMNPVSFGNEHSYLCTATCESRKLEKGIQVEIYSFPKDPEIHLSGPLEAGKPITVKCSVADVYPFDRLEIDLLKGDHLMKSQEFLEDADRKSLETKSLEVTFTPVIEDIGKVLVCRAKLHIDEMDSVPTVRQAVKELQVYISPKNT	soluble
GMNLANIVQRGWEALGAGDFDTLVTDYVEKMIFIMPGQADVLKGRQAFRSALDNLGEILPPGFEITGLRQLEGENEIVSIVEWKSDKMIASQLSVLFKFEGDQIYEERWFVDTEQWKSVF	soluble
